According to patent US20200270588A1, “GLUCOSYL TRANSFERASE POLYPEPTIDES AND METHODS OF USE” (Syngenta Participations AG, priority 2017, published 2020):

Columns and labels:
Test in all cases: UDP-Glo glucosyl transferase assay, purified enzyme
Type in all cases: biochemical, Zea mays
[1] = test system: CON1C(=O)N(c2cc(C(F)(F)F)c(Cl)cn2)C(O)C1C; conditions: other: control = inactive H24A mutant of bx9 (asterisk), pH 7.5
[2] = test system: CON1C(=O)N(c2cc(C(F)(F)F)ccn2)C(O)[C@@H]1C; conditions: other: DMSO reagent blank as control, pH 7.5
[3] = test system: Cc1cnc(N2C(=O)N(C)CC2O)cc1C(F)(F)F; conditions: other: control = inactive H24A mutant of bx9 (asterisk), pH 7.5
[4] = test system: CN1CC(O)N(c2cc(C(F)(F)F)ccn2)C1=O; conditions: other: DMSO reagent blank as control, pH 7.5
[5] = test system: CN1CC(O)N(c2cc(C(F)(F)F)c(Cl)cn2)C1=O; conditions: other: control = inactive H24A mutant of bx9 (asterisk), pH 7.5
[6] = test system: CN1CC(O)N(c2cc(C(F)(F)F)ccn2)C1=O; conditions: other: DMSO reagent blank as control, pH 7.5; remark: listed apart in the source
Description: (§1) Glucosyl transferase activity is assayed via measurement of acceptor substrate-dependent production of UDP from ultrapure UDP-glucose using the Promega UDP-Glo™ method and according to the manufacturer's instructions. Assays are run in 96 well microtiter plates.
(§2) Enzyme, typically at a stock concentration of ˜2 mg/ml is diluted to an appropriate concentration in 50 mM K^+ Hepes buffer at pH7.5 containing 0.5 mg/mL bovine serum albumin (BSA) and 5 ul aliquots of this diluted enzyme added to each well of a Perkin Elmer white ½ area 96 well plate. […] Assays are run for an appropriate time (usually 10 to 60 min) so that the amount of UDP formed lies within the most nearly linear part of the UDP standard curve and are stopped with the addition and mixing of 25 ul UDP-Glo™ detection reagent (prepared as described below). Plates are then incubated at room temperature for 60 minutes and then read in a luminescence plate reader (Perkin Elmer Envision 2130 Multilabel Reader). A UDP standard curve is run alongside each set of assays and reagent blank control assays run with DMSO in place of test herbicide. Typically, 300 pmol of UDP corresponds to a Relative Luminescence Unit (RLU) reading of about 1.5E7 and the response curve between 0 and 600 pmol is fitted to a polynomial function (see for example FIG. 2).
(§3) The UDP-Glo™ reagents are made up and used according to the manufacturer's instructions. Thus, Nucleotide Detection Buffer and ATP are combined to make nucleotide detection reagent (NDR) dispensed into aliquots and frozen to be freshly thawed before use.
(§4) Km and kcat values in respect of UDP-glucose are derived by carrying out experiments to measure initial rates over a suitable range of concentrations of UDP glucose out at a fixed near saturating concentration of acceptor substrate. Best fit values of kcat, Km and kcat/Km are obtained by direct fitting of the data to the Michaelis-Menten equation using Graphpad Prism™ software.
(§5) Variants of C-terminally his tagged SEQ ID No:1 (w/t bx9 from Zea mays), exemplified as SEQ ID 16-30, were cloned, purified and assayed as described in Example 1. FIG. 4 depicts the data from some experiments to determine the kinetic parameters of some of these variants in respect of herbicide VI and table 12 summarizes the estimates of kinetic parameters obtained from further such experiments in respect of a range of herbicides.

[7] = test system: CON1C(=O)N(c2cc(C(F)(F)F)ccn2)C(O)[C@@H]1C; conditions: other: DMSO reagent blank as control, pH 7.5; remark: listed apart in the source
Description: as §1, §2, §3, §4, §5

## SEQ ID NO 17, zmBX9 S117V, M279F, A334K mutant (Zea mays; A334K/M279F/S117V)
[1]
  Km: 190 µM
  kcat: 2.08 s⁻¹
  kcat/Km: 11200 M⁻¹ s⁻¹
[2]
  Km: 2.2 µM
  kcat: 2.08 s⁻¹
  kcat/Km: 938000 M⁻¹ s⁻¹
[3]
  Km: 800 µM
  kcat: 0.38 s⁻¹
  kcat/Km: 480 M⁻¹ s⁻¹
[4]
  Km: 109.7 µM
  kcat: 0.852 s⁻¹
  kcat/Km: 7800 M⁻¹ s⁻¹
[5]
  Km: 10530 µM
  kcat: 2.04 s⁻¹
  kcat/Km: 190 M⁻¹ s⁻¹

## SEQ ID 24, mutant of Zea mays bx9 glucosyl transferase (Zea mays; A334K/L194C/M279F/S117V)
[6]
  Km: 45.5 µM
  kcat: 2.61 s⁻¹
  kcat/Km: 57500 M⁻¹ s⁻¹

## SEQ ID 25, mutant of Zea mays bx9 glucosyl transferase (Zea mays; A334R/M279F/S117C)
[7]
  Km: 8.5 µM
  kcat: 3.24 s⁻¹
  kcat/Km: 380000 M⁻¹ s⁻¹
